Measurements published in the supplement of paper PMC9170038.

Assays:
[1] = test system: MS2 coat protein; experiment: apparent KD of MS2 coat protein; higher = weaker reporter binding; details: Eterna round: R101
Procedure: (§1)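 RNA-MaP: designed FMN/MS2 RNA switches (84 nt design region) are transcribed on-chip within common flanks and titrated with SNAP-549-labelled MS2 coat protein (about 1-3000 nM) in 100 mM Tris pH 7.5, 80 mM KCl, 4 mM MgCl2, without or with 200 uM FMN. Median apparent KD per design; activation ratio = KD,OFF / KD,ON.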

[2] = test system: MS2 coat protein; experiment: apparent KD of MS2 coat protein; designed switch direction (-1 OFF switch, 1 ON switch): -1; higher = weaker reporter binding; details: Eterna round: R98
Procedure: as §1

[3] = test system: MS2 coat protein; experiment: apparent KD of MS2 coat protein; designed switch direction (-1 OFF switch, 1 ON switch): 1; higher = weaker reporter binding; details: Eterna round: R98
Procedure: as §1

In the case of “UAAAUAAAUCCUAGAGGAUCACCCUAGGAUAUCACCGUCGAGGUGCCAUAAUGGCACCUCGACGGUGAGAAGGAGGGAAAUAAA [#SharedSequence - SLExNG3: 3] (puzzle (switch architecture): Small Loop Exclusion NG 3)”, the “apparent KD of MS2 coat protein” value ([1]; input ligand: FMN 200 uM) is reported as 11.6 nM and the “apparent KD of MS2 coat protein” value ([1]; input ligand: none) is reported as 9.97 nM.
“AAAUCUCGAGCCGACGGGAGAGUACAUGAGGAUCACCCAUGUGAGGAUAUCCCUGAGAAGACGGCGGAGAAGGCACUGGGUAGG [Erzaribeve] (puzzle (switch architecture): Exclusion NG 3)” was tested, and the “apparent KD of MS2 coat protein” value ([1]; input ligand: FMN 200 uM) was 9.95 nM and the “apparent KD of MS2 coat protein” value ([1]; input ligand: none) was 8.6 nM.
With “UCAGGUCGGGAAGGAUAUCGGCCGCAGAGAGCUCGAGAAGGUCCCGACAUGAGGAUCACCCAUGUUGAAGGAUCCUAACGUGCC [Maonan]” the “apparent KD of MS2 coat protein” value ([2]; input ligand: FMN 200 uM) was 35.4 nM and the “apparent KD of MS2 coat protein” value ([2]; input ligand: none) was 38.3 nM.
In the case of “GCCAUCGCAUGAGGAUAUGCUCCGGUUUCCGGAGCAGAAGGCAUGUCAUAAGACAUGAGGAUCACCCAUGUAGUUAAGAUGGCA [#HiddenHairpinInALoop - jl-sng1-2.00 jl mod - Original] (puzzle (switch architecture): Same State NG 1)”, the “apparent KD of MS2 coat protein” value ([1]; input ligand: FMN 200 uM) is reported as 10.6 nM and the “apparent KD of MS2 coat protein” value ([1]; input ligand: none) is reported as 283 nM.
With “GCGCGCGCGUCAGGAUAUACAUGAGGAUCACCCAUGUGUGCGCGCGCGCGCGCGCGCGCGCGCGUGUAGAAGGGACGCUGUCGC [Incredible-Exclusion NG 2]” the “apparent KD of MS2 coat protein” value ([2]; input ligand: FMN 200 uM) was 20.6 nM and the “apparent KD of MS2 coat protein” value ([2]; input ligand: none) was 14.4 nM.
With “UUACUCAUGUAAGGAUAUGCAGCCGAAACGGCUGCAGAAGGUACUAUAAUACAUGAGGAUCACCCAUGUAAAAUAAAUAAGGUU (puzzle (switch architecture): Same State NG 1)” the “apparent KD of MS2 coat protein” value ([1]; input ligand: FMN 200 uM) was 19.5 nM and the “apparent KD of MS2 coat protein” value ([1]; input ligand: none) was 44.1 nM.
For “GCAGCUAAUGCAGGAUAUCAGCACGUGUAGUGCUGAGAAGGGCACAUGAGGAUCAAAACUGUGAUCAAUUAAUAUUAAUGCUGC [salish99#hingeEx3_55-58_001] (puzzle (switch architecture): Exclusion NG 1)”, the “apparent KD of MS2 coat protein” value ([1]; input ligand: FMN 200 uM) was 8.28 nM and the “apparent KD of MS2 coat protein” value ([1]; input ligand: none) was 9.12 nM.
For “CAGUCGACCAUAACAAGGUCGACUGACUUCUGAGGAUCACCCAGAAGGCGUCACCUAAUAGGUGACGAGGAUAUGGAGUGAAAA [#SharedSequence IExNG# - 6] (puzzle (switch architecture): Inverted Exclusion NG 3)”, the “apparent KD of MS2 coat protein” value ([1]; input ligand: FMN 200 uM) was 75 nM and the “apparent KD of MS2 coat protein” value ([1]; input ligand: none) was 95 nM.
In the case of “AAUAUAAAGAGCUGGUCUCAAAUAACAUGAGGAUCACCCAUGUAGGAUAUCAGCACGAUAAGUGCUGAGAAGGACAUCCAGCUC [Denovo 49]”, the “apparent KD of MS2 coat protein” value ([2]; input ligand: FMN 200 uM) is reported as 18.9 nM and the “apparent KD of MS2 coat protein” value ([2]; input ligand: none) is reported as 15.9 nM.
“AAAUAAACUCAAGGAUAUGACUCCGAAACGGAGUCAGAAGGUGAGGAUCACCCACCUAAGAUCAGACCUCAGGAAACUGAGGUC [#SharedSequence ExNG1 - 36] (puzzle (switch architecture): Exclusion NG 1)” was tested, and the “apparent KD of MS2 coat protein” value ([1]; input ligand: FMN 200 uM) was 13.2 nM and the “apparent KD of MS2 coat protein” value ([1]; input ligand: none) was 6.46 nM.
“AAAUGCCUGUCGAUGCUCGACAUGAGGAUCACCCAUGUAUAGCAGGAUAUGCAGAACUGACUCGUGCAGAAGGGCUAUACCUAA (puzzle (switch architecture): Exclusion NG 3)” was tested, and the “apparent KD of MS2 coat protein” value ([1]; input ligand: FMN 200 uM) was 52.8 nM and the “apparent KD of MS2 coat protein” value ([1]; input ligand: none) was 18.7 nM.
For “GGAGAUACAUGAGGAUCACCCAUGUAGGAUAUAUAGUAUAUAUAUAUUGAAAGAUAUAUAUAUAUAUAGAAGGGCGUGCACACC [#LOL-17] (puzzle (switch architecture): Small Loop Exclusion NG 3)”, the “apparent KD of MS2 coat protein” value ([1]; input ligand: FMN 200 uM) was 6.32 nM and the “apparent KD of MS2 coat protein” value ([1]; input ligand: none) was 8.77 nM.
For “AAAUAAAUUCAAGGAUAUCAGUGGCAAAGCCACUGAGAAGGUGAGGAUCACCCACCUAUGAUCACAGGUGACGAAAGUCACCUG [#SharedSequence ExNG1 - 38] (puzzle (switch architecture): Exclusion NG 1)”, the “apparent KD of MS2 coat protein” value ([1]; input ligand: FMN 200 uM) was 11.4 nM and the “apparent KD of MS2 coat protein” value ([1]; input ligand: none) was 11.3 nM.
For “GCACUGGAUGUAGGAUAUCAGGACGAUAAGUCCUGAGAAGGACAUGAGGAUCACCCAUGUCCCAAAACCAGUGCAUAUAAUAUA [Denovo Exng1 31]”, the “apparent KD of MS2 coat protein” value ([2]; input ligand: FMN 200 uM) was 19.8 nM and the “apparent KD of MS2 coat protein” value ([2]; input ligand: none) was 14.3 nM.
In the case of “AAAUGAUAUCAGAAGGGCUCCAGCAAAGCUGGAGCAGGAUAUGAGGAUCACCCAUGUCACCUGACGGUCGAAACGACCGUCAGG [#SharedSequence - IExNG1: 7-3] (puzzle (switch architecture): Inverted Exclusion NG 1)”, the “apparent KD of MS2 coat protein” value ([1]; input ligand: FMN 200 uM) is reported as 205 nM and the “apparent KD of MS2 coat protein” value ([1]; input ligand: none) is reported as 26.6 nM.
With “AUAUAUAUAUAGAAGGACAUGAGGAUCACCCAUGUCGCCGGGCCCGGGAAACCGGGCCCGGCCAUGUAGGAUAUAUAUAUAUAU [#This is a good prank 12] (puzzle (switch architecture): Inverted Exclusion NG 2)” the “apparent KD of MS2 coat protein” value ([1]; input ligand: FMN 200 uM) was 5.57 nM and the “apparent KD of MS2 coat protein” value ([1]; input ligand: none) was 3.55 nM.
“GAGAAGAAGUUAGGAUAUUGGAUAGGGACGGAAUAAGAAGGAGCAAGGGACAUGAGGAUCACCCAUGUAGAAGAAGAGAUCCUC [X-NG1_50] (puzzle (switch architecture): Exclusion NG 1)” was tested, and the “apparent KD of MS2 coat protein” value ([1]; input ligand: FMN 200 uM) was 10.9 nM and the “apparent KD of MS2 coat protein” value ([1]; input ligand: none) was 26.7 nM.
In the case of “UAUUAUUUGGAGAAGGACAUGAGGAUCACCCAUGUCGCCGGGCCCGGGAAACCGGGCCCGGCCAUGUAGGAUAUCCGGAUGGUA [#This is a good prank 4] (puzzle (switch architecture): Inverted Exclusion NG 2)”, the “apparent KD of MS2 coat protein” value ([1]; input ligand: FMN 200 uM) is reported as 7.61 nM and the “apparent KD of MS2 coat protein” value ([1]; input ligand: none) is reported as 7.31 nM.
In the case of “UAAAUAGAUCCUAGAGGAUCACCCUAGGAUAUCACCGUCGAGGUGCCAUAAUGGCACCUCGACGGUGAGAAGGAGGUUGAUAAA [#SharedSequence - SLExNG3: 7] (puzzle (switch architecture): Small Loop Exclusion NG 3)”, the “apparent KD of MS2 coat protein” value ([1]; input ligand: FMN 200 uM) is reported as 19.9 nM and the “apparent KD of MS2 coat protein” value ([1]; input ligand: none) is reported as 11.4 nM.
In the case of “AAUAAUCUUUAAGGAUAUCAGUGGCAAAGCCACUGAGAAGGUGAGGAUCACCCACCUACGUGACCCUGGAAACAGGGUCACGAA [#SharedSequence - ExNG1-10] (puzzle (switch architecture): Exclusion NG 1)”, the “apparent KD of MS2 coat protein” value ([1]; input ligand: FMN 200 uM) is reported as 15.4 nM and the “apparent KD of MS2 coat protein” value ([1]; input ligand: none) is reported as 14.3 nM.
In the case of “GGUCGACUUCAAGGAUAUGGACUGCAAAGCAGUCCAGAAGGUGAGGAUCACCCACCUACGGUCAGGAAACUGACCGAUCGACCA [#SharedSequence - ExNG1-4] (puzzle (switch architecture): Exclusion NG 1)”, the “apparent KD of MS2 coat protein” value ([1]; input ligand: FMN 200 uM) is reported as 12.3 nM and the “apparent KD of MS2 coat protein” value ([1]; input ligand: none) is reported as 10.5 nM.
For “AAAAUAAAGGCAGGAUAUACAUGAAUAUAUAAUAUAAUAUAUAAUAUAACAUGAGGAUCACCCAUGUAGAAGGGCCAAAAUAAA [LRO026_Exclusion NG 2]”, the “apparent KD of MS2 coat protein” value ([2]; input ligand: FMN 200 uM) was 88.1 nM and the “apparent KD of MS2 coat protein” value ([2]; input ligand: none) was 46.4 nM.
For “UAUUUAUGGUGAGGAUAUGCAAAGGAUCACCUUGUAGAAGGCAUCAGGUAGAAGGUGCAGAGGAUCACCCUGUAAGGAUAUAUC [pwkr2 ssNG1 DX.22]”, the “apparent KD of MS2 coat protein” value ([3]; input ligand: FMN 200 uM) was 66.1 nM and the “apparent KD of MS2 coat protein” value ([3]; input ligand: none) was 232 nM.
“UAAAUAAAUCCUAGAGGAUCACCCUAGGAUAUCACCGUCGAGGUGCCAUAAUGGCACCUCGACGGUGAGAAGGAGGUUGAUAAA [#SharedSequence - SLExNG3: 6] (puzzle (switch architecture): Small Loop Exclusion NG 3)” was tested, and the “apparent KD of MS2 coat protein” value ([1]; input ligand: FMN 200 uM) was 13 nM and the “apparent KD of MS2 coat protein” value ([1]; input ligand: none) was 8.33 nM.
In the case of “GUCGAAUUCUUAGGAUAUCGAGUGGAAUACACUCGAGAAGGAAGAUAUACCUGAGGAUCACCCAGGUUAAACUGAACGACAAUA [Same State NG1 - A3C, U17G Submission 7C]”, the “apparent KD of MS2 coat protein” value ([3]; input ligand: FMN 200 uM) is reported as 17.6 nM and the “apparent KD of MS2 coat protein” value ([3]; input ligand: none) is reported as 17.6 nM.
In the case of “GUAGCAUUGAGAGGAUAUCCAUACCGGAAACGGACAUGAGGAUCACCCAUGUGGCGAAAGCCUUGGGAGAAGGCUCUAUGCUAC [S-state NG2 01] (puzzle (switch architecture): Same State NG 2)”, the “apparent KD of MS2 coat protein” value ([1]; input ligand: none) is reported as 4.34 nM.
